The values below come from patent publication US20220242943A1.

For test [1], the target named is human PDGFRβ on HEK293/SRE-luc/hPDGFRβ cells (human) (UniProt P09619). The test can be described thus: cell-based or functional assay.
Test [2] concerns the target human PDGF-AB (human) (UniProt P04085). The experiment in a line: blocking ELISA: 100 pM Biot-PDGF-AB on 1 ug/ml hPDGFRb-mmH; IC50 cell NB (Non-Blocker). On the technique in general: ELISA stands for enzyme-linked immunosorbent assay.
The target in test [3] is Cynomolgus monkey PDGF-BB (cynomolgus monkey (Macaca fascicularis)). The experiment in a line: SPR 25C, mAb captured on anti-hFc; analyte Monkey PDGF-BB homodimer (Kingfisher).
In test [4] the target is human PDGF-BB (human) (UniProt P01127). The experiment in a line: SPR 25C, mAb captured on anti-hFc; analyte Human PDGF-BB homodimer (R&D).
For test [5] the target is unchanged. The experiment in a line: cell-based or functional assay.
For test [6], the target named is human PDGF-AB (human) (UniProt P04085). The test can be described thus: cell-based or functional assay.
In test [7] the target is human PDGF-BB (human) (UniProt P01127). The test can be described thus: blocking ELISA: 60 pM Biot-PDGF-BB on 1 ug/ml hPDGFRb-mmH; IC50 cell NB (Non-Blocker).

Sequence of Cynomolgus monkey PDGF-BB (cynomolgus monkey (Macaca fascicularis)) (chain, as listed by the source): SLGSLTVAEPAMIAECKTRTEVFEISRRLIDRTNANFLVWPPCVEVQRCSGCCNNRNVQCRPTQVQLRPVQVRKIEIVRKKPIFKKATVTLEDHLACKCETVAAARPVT
Sequence of human PDGFRβ on HEK293/SRE-luc/hPDGFRβ cells (human) (P09619 33-1106): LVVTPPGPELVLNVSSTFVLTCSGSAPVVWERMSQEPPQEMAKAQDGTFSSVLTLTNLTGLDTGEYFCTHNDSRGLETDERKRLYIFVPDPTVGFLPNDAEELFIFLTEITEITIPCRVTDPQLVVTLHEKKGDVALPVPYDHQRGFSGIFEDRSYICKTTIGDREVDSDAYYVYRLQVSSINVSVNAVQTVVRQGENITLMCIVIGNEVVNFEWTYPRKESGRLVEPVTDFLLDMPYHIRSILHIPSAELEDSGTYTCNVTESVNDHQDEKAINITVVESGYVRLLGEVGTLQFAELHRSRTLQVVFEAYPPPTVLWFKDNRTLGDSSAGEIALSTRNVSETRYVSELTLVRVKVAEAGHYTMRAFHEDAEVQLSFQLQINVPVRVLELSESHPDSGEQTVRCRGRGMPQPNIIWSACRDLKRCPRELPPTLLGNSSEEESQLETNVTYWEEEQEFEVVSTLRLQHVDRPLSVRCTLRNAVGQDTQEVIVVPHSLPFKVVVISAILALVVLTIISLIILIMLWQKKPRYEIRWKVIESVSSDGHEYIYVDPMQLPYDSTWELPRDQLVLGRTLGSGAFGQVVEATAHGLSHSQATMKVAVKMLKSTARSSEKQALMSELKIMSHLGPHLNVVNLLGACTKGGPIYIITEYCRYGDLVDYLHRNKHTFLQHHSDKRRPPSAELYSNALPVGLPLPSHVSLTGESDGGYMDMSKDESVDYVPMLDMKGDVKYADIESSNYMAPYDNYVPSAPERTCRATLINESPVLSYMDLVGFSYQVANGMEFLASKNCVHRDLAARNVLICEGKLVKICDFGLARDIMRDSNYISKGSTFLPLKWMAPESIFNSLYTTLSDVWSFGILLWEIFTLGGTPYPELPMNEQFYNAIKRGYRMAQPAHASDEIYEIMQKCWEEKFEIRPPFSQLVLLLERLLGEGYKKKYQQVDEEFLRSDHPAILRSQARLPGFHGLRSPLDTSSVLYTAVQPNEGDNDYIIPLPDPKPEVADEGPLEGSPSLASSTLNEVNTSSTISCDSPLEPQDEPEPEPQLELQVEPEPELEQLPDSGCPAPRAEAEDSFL

“human PDGF-AB (from UniProt P04085 87-211) (ligand)” showed an EC50 of ligand, SRE-luciferase in HEK293/SRE-luc/hPDGFRβ cells in test [1] of 8.6 nM.
Regarding REGN1945 (antibody), the % blocking at 100 nM Ab in test [2] was 21%. In addition, the 30nM mfPDGF-BB (KingFisher) Bound (RU) in test [3] was found to be 6.8 RU. In addition, in test [4], the 30nM hPDGF-BB (R&D) Bound (RU) turned out to be 6.7 RU. Besides, in test [5], the A647 Intensity, internalization in NHLF, pre-blocking Ab: NA worked out at 573000; the A647 Intensity, internalization in PASMC, pre-blocking Ab: NA turned out to be 483000; the EC50 of subsequent PDGF-BB calcium flux in PASMC after 3 hr pre-treatment with antibody-PDGFBB (10:1 nM) came to 0.6 nM; the Fold Change vs REGN1945, internalization in NHLF, pre-blocking Ab: NA was 1 fold. In addition, in test [5], the Fold Change vs REGN1945, internalization in PASMC, pre-blocking Ab: NA worked out at 1 fold; the Max-Min at 5 nM PDGF-BB (RFU), PASMC after 3 hr pre-treatment with antibody-PDGFBB stood at 3950 RFU; the Max-Min at 5 nM PDGF-BB (RFU), PASMC after 24 hr pre-treatment with antibody-PDGFBB is 1460 RFU; the Max-Min at 5 nM PDGF-BB (RFU), PASMC after 48 h pre-treatment with antibody-PDGFBB is 492 RFU. In test [6], this substance displayed an A647 Intensity, internalization in NHLF, pre-blocking Ab: NA of 624000; an A647 Intensity, internalization in PASMC, pre-blocking Ab: NA of 464000; a Fold Change vs REGN1945, internalization in NHLF, pre-blocking Ab: NA of 1 fold; a Fold Change vs REGN1945, internalization in PASMC, pre-blocking Ab: NA of 1 fold. Further, in test [7], the % blocking at 100 nM Ab was -6%.
isotype - mIgG (REGN 751) (antibody): the % blocking at 100 nM Ab was 18% in test [2] and -5% in test [7].
